Measured values taken from US20190225669A1 (ACCELERON PHARMA, published 2019).
Read-outs that look alike come from different tables or passages of the source. One block for each binder: values may come before it.

B2: BMP9 (ligand, UniProt Q9UK05 320-429, looked up)
chain: SAGAGSHCQKTSLRVNFEDIGWDSWIIAPKEYEAYECKGGCFFPLADDVTPTKHAIVQTLVHLKFPTKVGKACCVPTKLSPISVLYKDDMGVPTLKYHYEGMSVAECGCR
notes: also called GDF2

What was measured:
activin A = biological target: T1, activin A (UniProt P08476 311-426); experiment: Biacore SPR
T1 sequence (looked up): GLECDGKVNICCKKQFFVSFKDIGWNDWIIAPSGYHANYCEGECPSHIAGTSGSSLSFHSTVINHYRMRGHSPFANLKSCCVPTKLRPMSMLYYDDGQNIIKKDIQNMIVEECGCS
Protocol: (§1) Ligands were injected and allowed to flow over the captured receptor protein.

activin B = biological target: T2, activin B (UniProt P09529 293-407); experiment: Biacore SPR
T2 sequence (looked up): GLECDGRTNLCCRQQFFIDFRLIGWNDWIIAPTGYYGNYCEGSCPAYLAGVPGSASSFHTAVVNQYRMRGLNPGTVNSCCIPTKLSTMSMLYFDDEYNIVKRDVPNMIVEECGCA
Protocol: as §1

BMP5 = biological target: T3, BMP5 (UniProt P22003 317-454, limits assumed); experiment: Biacore SPR
T3 sequence (looked up): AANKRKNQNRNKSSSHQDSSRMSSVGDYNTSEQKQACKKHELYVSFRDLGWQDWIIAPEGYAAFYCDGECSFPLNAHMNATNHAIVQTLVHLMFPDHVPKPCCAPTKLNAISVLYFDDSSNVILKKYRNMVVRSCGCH
Protocol: as §1

BMP7 = biological target: T4, BMP7 (UniProt P18075 293-431); experiment: Biacore SPR
T4 sequence (looked up): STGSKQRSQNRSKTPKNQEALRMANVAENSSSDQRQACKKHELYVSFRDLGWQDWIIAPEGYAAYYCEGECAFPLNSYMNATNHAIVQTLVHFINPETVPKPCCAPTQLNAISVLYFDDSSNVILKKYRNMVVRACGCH
Protocol: as §1

BMP9 = biological target: B2; experiment: Biacore SPR
Protocol: as §1

BMP10 = biological target: T5, BMP10 (UniProt O95393 317-424); experiment: Biacore SPR
T5 sequence (looked up): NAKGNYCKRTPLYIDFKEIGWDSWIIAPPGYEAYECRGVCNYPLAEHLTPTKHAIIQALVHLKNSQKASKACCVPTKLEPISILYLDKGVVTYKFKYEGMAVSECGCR
Protocol: as §1

GDF3 = biological target: T6, GDF3 (UniProt Q9NR23 251-364); experiment: Biacore SPR
T6 sequence (looked up): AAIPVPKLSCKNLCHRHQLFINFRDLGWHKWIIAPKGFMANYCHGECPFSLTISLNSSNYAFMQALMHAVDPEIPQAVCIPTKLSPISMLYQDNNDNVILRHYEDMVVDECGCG
Protocol: as §1

GDF5 = biological target: T7, GDF5 (UniProt P43026 382-501); experiment: Biacore SPR
T7 construct: also called BMP14
T7 sequence (looked up): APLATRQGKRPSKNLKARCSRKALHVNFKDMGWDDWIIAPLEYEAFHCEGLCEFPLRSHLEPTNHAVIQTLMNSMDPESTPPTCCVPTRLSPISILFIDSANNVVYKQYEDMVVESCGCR
Protocol: as §1

GDF8 = biological target: T8, GDF8 (UniProt O14793 267-375); experiment: Biacore SPR
T8 construct: also called myostatin
T8 sequence (looked up): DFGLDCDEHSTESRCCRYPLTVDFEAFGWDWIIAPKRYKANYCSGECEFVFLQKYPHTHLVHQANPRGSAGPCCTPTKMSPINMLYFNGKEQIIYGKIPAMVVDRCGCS
Protocol: as §1

GDF11 = biological target: T9, GDF11 (UniProt O95390 299-407); experiment: Biacore SPR
T9 construct: also called BMP11
T9 sequence (looked up): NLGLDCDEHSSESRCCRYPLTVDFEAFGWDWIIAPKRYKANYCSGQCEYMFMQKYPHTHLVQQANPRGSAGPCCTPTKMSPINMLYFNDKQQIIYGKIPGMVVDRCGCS
Protocol: as §1

GDF6 = biological target: T10, GDF6 (UniProt Q6KF10 336-455, limits assumed); experiment: Biacore SPR; kinetics indeterminate (transient)
T10 construct: also called BMP13
T10 sequence (looked up): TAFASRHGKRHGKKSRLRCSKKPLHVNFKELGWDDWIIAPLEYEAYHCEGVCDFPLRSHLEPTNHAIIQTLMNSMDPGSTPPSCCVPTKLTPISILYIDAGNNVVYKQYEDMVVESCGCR
Protocol: as §1

BMPRII-Fc homodimer [1] = biological target: T11, BMPRII-Fc homodimer (UniProt Q13873 27-150); experiment: Biacore SPR
T11 construct: extracellular domain
T11 sequence (looked up): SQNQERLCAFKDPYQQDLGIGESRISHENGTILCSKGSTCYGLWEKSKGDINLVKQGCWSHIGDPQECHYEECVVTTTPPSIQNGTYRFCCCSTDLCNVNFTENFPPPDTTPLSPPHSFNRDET
Protocol: as §1

ActRIIB-Fc homodimer [2] = biological target: T12, ActRIIB-Fc homodimer (UniProt Q13705 19-137); experiment: Biacore SPR
T12 construct: extracellular domain; also called ActRIIB homodimer
T12 sequence (looked up): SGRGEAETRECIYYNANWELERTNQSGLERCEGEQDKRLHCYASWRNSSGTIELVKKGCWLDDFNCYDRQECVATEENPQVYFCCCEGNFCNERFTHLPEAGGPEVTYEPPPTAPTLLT
Protocol: as §1

ActRIIB-Fc homodimer [3] = biological target: T12, ActRIIB-Fc homodimer; experiment: Biacore SPR; remark: listed apart in the source
Protocol: as §1

ALK3-Fc homodimer = biological target: T13, ALK3-Fc homodimer (UniProt P36894 24-152); experiment: Biacore SPR
T13 construct: extracellular domain
Protocol: as §1

ActRIIB-Fc homodimer [4] = biological target: T12, ActRIIB-Fc homodimer; experiment: Biacore SPR; remark: listed apart in the source
Protocol: as §1

ActRIIB-Fc homodimer [5] = biological target: T12, ActRIIB-Fc homodimer; experiment: Biacore SPR; remark: listed apart in the source
Protocol: as §1

ActRIIB-Fc homodimer [6] = biological target: T12, ActRIIB-Fc homodimer; experiment: Biacore SPR; remark: listed apart in the source
Protocol: as §1

BMPRII-Fc homodimer [7] = biological target: T11, BMPRII-Fc homodimer; experiment: Biacore SPR; remark: listed apart in the source
Protocol: A Biacore™-based binding assay was used to compare ligand binding selectivity of the BMPRII-Fc:ALK2-Fc heterodimeric complex described above with that of BMPRII-Fc and ALK2-Fc homodimeric complexes. […] Ligands were injected and allowed to flow over the captured receptor protein.

BMPRII-Fc homodimer [8] = biological target: T11, BMPRII-Fc homodimer; experiment: Biacore SPR; remark: listed apart in the source
Protocol: as §1

BMPRII-Fc homodimer [9] = biological target: T11, BMPRII-Fc homodimer; experiment: Biacore SPR; remark: listed apart in the source
Protocol: as §1

ActRIIA-Fc homodimer = biological target: T14, ActRIIA-Fc homodimer (UniProt P27037 20-135); experiment: Biacore SPR; kinetics indeterminate (transient)
T14 construct: extracellular domain
Protocol: as §1

T13 sequence (P36894 24-152): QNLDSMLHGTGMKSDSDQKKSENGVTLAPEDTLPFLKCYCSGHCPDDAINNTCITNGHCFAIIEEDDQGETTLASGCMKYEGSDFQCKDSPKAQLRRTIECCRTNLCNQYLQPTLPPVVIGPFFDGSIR
T14 sequence (P27037 20-135): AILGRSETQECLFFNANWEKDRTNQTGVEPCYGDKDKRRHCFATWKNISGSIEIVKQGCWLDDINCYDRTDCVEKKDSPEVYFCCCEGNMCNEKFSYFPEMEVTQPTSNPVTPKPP

Kd (activin A): 0.076 nM
koff (activin A): 0.0026 s⁻¹
kon (activin A): 3.4e+07 M⁻¹ s⁻¹
Kd (activin B): 0.047 nM
koff (activin B): 0.00015 s⁻¹
kon (activin B): 3.2e+06 M⁻¹ s⁻¹
Kd (BMP5): 1.2 nM
koff (BMP5): 0.0014 s⁻¹
kon (BMP5): 1.2e+06 M⁻¹ s⁻¹
Kd (BMP7): 0.17 nM
koff (BMP7): 0.0026 s⁻¹
kon (BMP7): 1.5e+07 M⁻¹ s⁻¹
Kd (BMP9): 0.28 nM
koff (BMP9): 0.00089 s⁻¹
kon (BMP9): 3.2e+06 M⁻¹ s⁻¹
Kd (BMP10): 0.053 nM
koff (BMP10): 0.0029 s⁻¹
kon (BMP10): 5.5e+07 M⁻¹ s⁻¹
Kd (GDF3): 6.5 nM
koff (GDF3): 0.012 s⁻¹
kon (GDF3): 1.8e+06 M⁻¹ s⁻¹
Kd (GDF5): 5 nM
koff (GDF5): 0.0044 s⁻¹
kon (GDF5): 880000 M⁻¹ s⁻¹
Kd (GDF8): 0.36 nM
koff (GDF8): 0.00073 s⁻¹
kon (GDF8): 2.1e+06 M⁻¹ s⁻¹
Kd (GDF11): 0.6 nM
koff (GDF11): 0.00093 s⁻¹
kon (GDF11): 1.6e+06 M⁻¹ s⁻¹
Kd (GDF6): > 240 nM
B1: ActRIIB-Fc:ALK2-Fc heterodimer (Fc fusion)
chain 1: GRGEAETRECIYYNANWELERTNQSGLERCEGEQDKRLHCYASWRNSSGTIELVKKGCWLDDFNCYDRQECVATEENPQVYFCCCEGNFCNERFTHLPEAGGPEVTYEPPPTAPTGGGTHTCPPCPAPELLGGPSVFLFPPKPKDTLMISRTPEVTCVVVDVSHEDPEVKFNWYVDGVEVHNAKTKPREEQYNSTYRVVSVLTVLHQDWLNGKEYKCKVSNKALPAPIEKTISKAKGQPREPQVYTLPPSRKEMTKNQVSLTCLVKGFYPSDIAVEWESNGQPENNYKTTPPVLKSDGSFFLYSKLTVDKSRWQQGNVFSCSVMHEALHNHYTQKSLSLSPGK
chain 2: MEDEKPKVNPKLYMCVCEGLSCGNEDHCEGQQCFSSLSINDGFHVYQKGCFQVYEQGKMTCKTPPSPGQAVECCQGDWCNRNITAQLPTKGKSFPGTQNFHLETGGGTHTCPPCPAPELLGGPSVFLFPPKPKDTLMISRTPEVTCVVVDVSHEDPEVKFNWYVDGVEVHNAKTKPREEQYNSTYRVVSVLTVLHQDWLNGKEYKCKVSNKALPAPIEKTISKAKGQPREPQVYTLPPSREEMTKNQVSLTCLVKGFYPSDIAVEWESNGQPENNYDTTPPVLDSDGSFFLYSDLTVDKSRWQQGNVFSCSVMHEALHNHYTQKSLSLSPG
notes: C-terminal Lys optional; also called ActRIIB-Fc:ALK2-Fc heterodimeric complex

Binder: B2
Kd (BMPRII-Fc homodimer [1]): 2.1 nM
koff (BMPRII-Fc homodimer [1]): 0.026 s⁻¹
kon (BMPRII-Fc homodimer [1]): 1.2e+07 M⁻¹ s⁻¹
Kd (ActRIIB-Fc homodimer [2]): 0.077 nM
koff (ActRIIB-Fc homodimer [2]): 0.0011 s⁻¹
kon (ActRIIB-Fc homodimer [2]): 1.4e+07 M⁻¹ s⁻¹
Kd (ActRIIB-Fc homodimer [3]): 0.034 nM
koff (ActRIIB-Fc homodimer [3]): 0.0013 s⁻¹
kon (ActRIIB-Fc homodimer [3]): 3.9e+07 M⁻¹ s⁻¹
binding result (ALK3-Fc homodimer): no binding
Kd (ActRIIB-Fc homodimer [4]): 0.01 nM
koff (ActRIIB-Fc homodimer [4]): 0.0012 s⁻¹
kon (ActRIIB-Fc homodimer [4]): 1.2e+08 M⁻¹ s⁻¹
Kd (ActRIIB-Fc homodimer [5]): 0.034 nM
koff (ActRIIB-Fc homodimer [5]): 0.0013 s⁻¹
kon (ActRIIB-Fc homodimer [5]): 3.9e+07 M⁻¹ s⁻¹
Kd (ActRIIB-Fc homodimer [6]): 0.034 nM
koff (ActRIIB-Fc homodimer [6]): 0.0013 s⁻¹
kon (ActRIIB-Fc homodimer [6]): 3.9e+07 M⁻¹ s⁻¹
Kd (BMPRII-Fc homodimer [7]): 1.6 nM
koff (BMPRII-Fc homodimer [7]): 0.073 s⁻¹
kon (BMPRII-Fc homodimer [7]): 4.5e+07 M⁻¹ s⁻¹
Kd (BMPRII-Fc homodimer [8]): 2.1 nM
koff (BMPRII-Fc homodimer [8]): 0.026 s⁻¹
kon (BMPRII-Fc homodimer [8]): 1.2e+07 M⁻¹ s⁻¹
Kd (BMPRII-Fc homodimer [9]): 2.1 nM
koff (BMPRII-Fc homodimer [9]): 0.026 s⁻¹
kon (BMPRII-Fc homodimer [9]): 1.2e+07 M⁻¹ s⁻¹
Kd (ActRIIA-Fc homodimer): > 10 nM
